Experiments:
Assay in all cases: cell-based or functional assay
LOC541468 (human) = LOC541468 (human) (UniProt Q96LR2)
SF3A3 (human) = SF3A3 (human) (UniProt Q12874)
LNX2 (human) = LNX2 (human) (UniProt Q8N448)
MIZF (human) = MIZF (human) (UniProt Q9BQA5)
PDE9A (human) = PDE9A (human) (UniProt O76083)
HOXA3 (human) = HOXA3 (human) (UniProt O43365)
HOXD3 (human) = HOXD3 (human) (UniProt P31249)
MRPS6 (human) = MRPS6 (human) (UniProt P82932)
FATE1 (human) = FATE1 (human) (UniProt Q969F0)
SPG21 (human) = SPG21 (human) (UniProt Q9NZD8)
LENG1 (human) = LENG1 (human) (UniProt Q96BZ8)
KIF9 (human) = KIF9 (human) (UniProt Q9HAQ2)
DHRS10 (human) = DHRS10 (human) (UniProt Q9BPX1)
FANCG (human) = FANCG (human) (UniProt O15287)
DGCR6L (human) = DGCR6L (human) (UniProt Q9BY27)
C20orf141 (human) = C20orf141 (human) (UniProt Q9NUB4)
NOS3 (human) = NOS3 (human) (UniProt P29474)
KIAA1949 (human) = KIAA1949 (human) (UniProt Q6NYC8)
KRT8 (human) = KRT8 (human) (UniProt P05787)
MYEF2 (human) = MYEF2 (human) (UniProt Q9P2K5)
TTC23 (human) = TTC23 (human) (UniProt Q5W5X9)
CCDC24 (human) = CCDC24 (human) (UniProt Q8N4L8)
FLJ22471 (human) = FLJ22471 (human) (UniProt Q53HC0)
NEFL (human) = NEFL (human) (UniProt P07196)
NIF3L1 (human) = NIF3L1 (human) (UniProt Q9GZT8)
HOXB9 (human) = HOXB9 (human) (UniProt P17482)
ZNF614 (human) = ZNF614 (human) (UniProt Q8N883)

HIV-1 Tat gave an HIV LTR transactiv. (fold change) (LOC541468 (human)) of 2.38 fold change, an HIV LTR transactiv. (fold change) (SF3A3 (human)) of 0.49 fold change and an HIV LTR transactiv. (fold change) (LNX2 (human)) of 0.26 fold change. The HIV LTR transactiv. (fold change) (MIZF (human)) was 2.5 fold change, the HIV LTR transactiv. (fold change) (PDE9A (human)) was 0.28 fold change and the HIV LTR transactiv. (fold change) (HOXA3 (human)) was 0.29 fold change. It also gave an HIV LTR transactiv. (fold change) (HOXD3 (human)) of 7.3 fold change.

For HTLV-1 Tax p40, the HTLV LTR transactiv. (fold change) (MRPS6 (human)) was 0.38 fold change, the HTLV LTR transactiv. (fold change) (FATE1 (human)) was 0.49 fold change and the HTLV LTR transactiv. (fold change) (SPG21 (human)) was 0.21 fold change. For the same substance, the HTLV LTR transactiv. (fold change) (LENG1 (human)) was 0.34 fold change, the HTLV LTR transactiv. (fold change) (KIF9 (human)) was 0.37 fold change and the HTLV LTR transactiv. (fold change) (DHRS10 (human)) was 0.41 fold change. For the same substance, the HTLV LTR transactiv. (fold change) (FANCG (human)) was 3.48 fold change, the HTLV LTR transactiv. (fold change) (DGCR6L (human)) was 0.24 fold change and the HTLV LTR transactiv. (fold change) (LNX2 (human)) was 0.28 fold change. For the same substance, the HTLV LTR transactiv. (fold change) (C20orf141 (human)) was 2.8 fold change, the HTLV LTR transactiv. (fold change) (NOS3 (human)) was 0.45 fold change and the HTLV LTR transactiv. (fold change) (KIAA1949 (human)) was 0.35 fold change. It also gave an HTLV LTR transactiv. (fold change) (KRT8 (human)) of 0.24 fold change, an HTLV LTR transactiv. (fold change) (MYEF2 (human)) of 2.53 fold change and an HTLV LTR transactiv. (fold change) (TTC23 (human)) of 0.21 fold change. It also gave an HTLV LTR transactiv. (fold change) (CCDC24 (human)) of 2.88 fold change, an HTLV LTR transactiv. (fold change) (FLJ22471 (human)) of 2.25 fold change and an HTLV LTR transactiv. (fold change) (NEFL (human)) of 0.45 fold change. The HTLV LTR transactiv. (fold change) (NIF3L1 (human)) was 0.39 fold change, the HTLV LTR transactiv. (fold change) (HOXB9 (human)) was 3.69 fold change and the HTLV LTR transactiv. (fold change) (ZNF614 (human)) was 5.24 fold change.

— patent US20120090043A1, “TARGETS FOR RETROVIRUS ASSOCIATED DISEASES” (priority 2009, published 2012)
